# Assay results published in WO2015070078A1.
# Columns and labels:
# [1] = biological target: human FcγRIIIa (158V variant) (human) (UniProt P08637); assay: flow cytometry titration on CHO cells expressing human FcγRIIIa-158V
# [2] = biological target: human FcγRIIIa 158F variant (human) (UniProt P08637); assay: flow cytometry titration on CHO cells expressing human FcγRIIIa-158F
# mouse FcγRIV (mouse) = assay: ELISA, recombinant mouse FcγRIV coated on the plate
# human FcγRIIb (human) = human FcγRIIb (human) (UniProt P31994); assay: flow cytometry on CHO cells expressing human FcγRIIb; antibody as dimeric complex with PE-conjugated Fab'2 anti-human Fab'2
# mouse FcγRIIb (mouse) = mouse FcγRIIb (mouse) (UniProt P08101); assay: ELISA, recombinant mouse FcγRIIb coated on the plate
# [3] = biological target: human FcγRIIIA (CD16A), variant at 158 not stated (human) (UniProt P08637); assay: cell-based or functional assay; design: unit not given beside the values
substance,measurement,setting,value
"ESKM (produced in MAGE 1.5 CHO cells, no detectable fucose or galactose) (antibody)",higher affinity (against normally glycosylated ESK1),[1],80%
same,fold higher affinity (against normally glycosylated ESK1),[2],3.5 fold
same,higher affinity (against ESK1),mouse FcγRIV (mouse),51%
same,reduced affinity (against normally glycosylated ESK1),human FcγRIIb (human),50%
same,affinity as a fraction of that of ESK1,mouse FcγRIIb (mouse),0.5 fold
"ESKM having 100% reduced fucose content relative to ESK1 wildtype IgG1 (GlymaxX technology, CHO cells) (antibody)",EC50 of reverse signaling through FcγRIIIA (CD16A): NFAT-luciferase reporter in Jurkat cells with RMF-pulsed T2 cells,[3],0.17
ESK1 containing D265A/P329A mutations in the Fc domain (antibody),EC50 of reverse signaling through FcγRIIIA (CD16A): NFAT-luciferase reporter in Jurkat cells with RMF-pulsed T2 cells,[3],> 10000
ESK1 (antibody),EC50 of reverse signaling through FcγRIIIA (CD16A): NFAT-luciferase reporter in Jurkat cells with RMF-pulsed T2 cells,[3],0.88
